In patent US20170306031A1 (NGM BIOPHARMACEUTICALS, published 2017):
Like-named read-outs stand apart in the source and are kept apart here.

How the values were obtained:
[1] = target: T1, human GFRAL expressed on cells (human, UniProt Q6UXV0 20-394); experiment: cell-based or functional assay
T1 sequence: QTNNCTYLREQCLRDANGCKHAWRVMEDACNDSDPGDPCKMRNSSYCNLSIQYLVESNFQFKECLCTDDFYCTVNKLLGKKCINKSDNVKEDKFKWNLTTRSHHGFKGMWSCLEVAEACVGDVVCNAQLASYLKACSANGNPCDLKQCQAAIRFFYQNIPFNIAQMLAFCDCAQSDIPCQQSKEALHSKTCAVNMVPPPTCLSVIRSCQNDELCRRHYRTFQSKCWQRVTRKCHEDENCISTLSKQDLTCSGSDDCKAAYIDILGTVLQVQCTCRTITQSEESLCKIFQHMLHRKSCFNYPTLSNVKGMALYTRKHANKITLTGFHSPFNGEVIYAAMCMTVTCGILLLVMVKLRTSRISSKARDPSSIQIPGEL

[2] = target: T2, human GFRAL (analyte in Biacore assays) (human, UniProt Q6UXV0 19-351, limits assumed); experiment: Biacore SPR, antibody captured, GFRAL injected
T2 construct: injected in solution over captured antibody; also called hGFRAL
T2 sequence: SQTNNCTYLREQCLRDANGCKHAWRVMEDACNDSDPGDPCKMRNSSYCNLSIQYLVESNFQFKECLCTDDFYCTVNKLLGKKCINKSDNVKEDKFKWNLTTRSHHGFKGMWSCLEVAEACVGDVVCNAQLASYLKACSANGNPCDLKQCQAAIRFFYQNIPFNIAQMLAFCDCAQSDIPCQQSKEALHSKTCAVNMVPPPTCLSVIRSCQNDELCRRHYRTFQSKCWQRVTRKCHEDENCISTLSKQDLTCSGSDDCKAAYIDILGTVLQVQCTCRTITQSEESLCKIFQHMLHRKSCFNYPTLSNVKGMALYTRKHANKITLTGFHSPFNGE
Description: (§1) In addition, the binding affinity of antibodies to human and mouse GFRAL were measured. For example, antibodies were rank ordered based on their binding affinity to human GFRAL and mouse GFRAL by low resolution KD measurement by Biacore. Briefly, an anti-mouse Fc antibody (Sigma-Aldrich, St. Louis, Mo.) was immobilized on all four flow cells of a CM5 chip using amine coupling reagents (GE Healthcare LifeSciences, Piscataway, N.J.). Purified antibodies were captured (˜100 RUs) on flow cells 2, 3 and 4 using flow cell 1 as a reference. This was followed by injection of human or mouse GFRAL (25 nM in PBS-P buffer) at a flow rate of 70 μL/m in and monitoring the binding kinetics at 25° C.
(§2) Binding affinity measurements were also made in additional Biacore based assays. For example, equilibrium dissociation constant (KD) measurements were carried out with purified antibodies to evaluate their binding to human GFRAL or mouse GFRAL. As mentioned above, anti-mouse Fc antibody (Sigma-Aldrich, St. Louis, Mo.) was immobilized on all four flow cells of a CM5 chip using amine coupling reagents (GE Healthcare LifeSciences, Piscataway, N.J.). Purified antibodies were captured (˜100 RUs) on flow cells 2, 3 and 4 using flow cell 1 as a reference. This was followed by injection of human or mouse GFRAL in PBS-P buffer) at a flow rate of 70 μL/min and the binding kinetics were evaluated at 25° C.

[3] = target: T3, mouse GFRAL (analyte in Biacore assays) (mouse, UniProt Q6SJE0 20-349, limits assumed); experiment: Biacore SPR, antibody captured, GFRAL injected
T3 construct: injected in solution over captured antibody
T3 sequence: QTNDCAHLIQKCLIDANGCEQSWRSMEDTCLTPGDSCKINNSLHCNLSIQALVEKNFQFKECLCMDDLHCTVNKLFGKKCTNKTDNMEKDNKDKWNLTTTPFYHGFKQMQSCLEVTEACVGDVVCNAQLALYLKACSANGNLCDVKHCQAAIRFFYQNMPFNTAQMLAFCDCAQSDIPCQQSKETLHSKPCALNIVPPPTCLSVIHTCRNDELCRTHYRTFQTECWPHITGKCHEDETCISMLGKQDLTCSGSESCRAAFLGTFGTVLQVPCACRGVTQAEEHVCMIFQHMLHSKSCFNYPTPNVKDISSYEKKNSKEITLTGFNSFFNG
Description: as §1, §2

[4] = target: T1, human GFRAL expressed on cells; experiment: cell-based or functional assay; remark: listed apart in the source
[5] = target: T4, mouse GFRAL expressed on cells (mouse, UniProt Q6SJE0 20-393); experiment: cell-based or functional assay
T4 sequence: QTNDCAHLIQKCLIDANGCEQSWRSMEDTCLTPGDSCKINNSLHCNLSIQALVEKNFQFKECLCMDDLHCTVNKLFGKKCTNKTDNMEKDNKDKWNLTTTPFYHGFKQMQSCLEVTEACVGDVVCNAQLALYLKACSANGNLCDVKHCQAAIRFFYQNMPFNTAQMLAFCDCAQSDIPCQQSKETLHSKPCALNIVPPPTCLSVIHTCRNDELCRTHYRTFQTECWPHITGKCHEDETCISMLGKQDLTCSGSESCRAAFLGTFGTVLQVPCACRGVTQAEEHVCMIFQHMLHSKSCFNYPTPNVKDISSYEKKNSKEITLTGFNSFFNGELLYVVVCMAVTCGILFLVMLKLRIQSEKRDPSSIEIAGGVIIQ

[6] = target: T2, human GFRAL (analyte in Biacore assays); experiment: Biacore SPR, antibody captured, human GFRAL injected
Description: Exemplary humanized anti-GFRAL antibodies identified in Example 6 were assayed for their binding affinity to human GFRAL. Binding affinity measurements were made in Biacore based assays. For example, equilibrium dissociation constant (KD) measurements were carried out with purified antibodies to evaluate their binding to human GFRAL. Using methods described in Example II, anti-mouse Fc antibody (Sigma-Aldrich, St. Louis, Mo.) was immobilized on all four flow cells of a CM5 chip using amine coupling reagents (GE Healthcare LifeSciences, Piscataway, N.J.). Purified humanized anti-GFRAL antibodies were captured (˜100 RUs) on flow cells 2, 3 and 4 using flow cell 1 as a reference. This was followed by injection of human GFRAL in PBS-P buffer) at a flow rate of 70 μL/min and the binding kinetics were evaluated at 25° C.

[7] = target: T1, human GFRAL expressed on cells; experiment: cell-based or functional assay; remark: listed apart in the source

B1: antibody designated 17J16 (antibody, V domains shown)
VH: QVQLQQSGAELAKPGASVKMSCKTSGYTFTDYWIHWVKQRPGQGLEWIGYINPNSNYAEYNQKFKVKATLTADKSSSTAYLQLSRLTSEDSAVYYCARFDWNWYFHVWGAGSTVTVSS
VL: DVALTQIPLTLSVTVGQPASISCKSSQSLSDSDGKTYLNWLLQKPGQSPKRLIYLVSRLGSGVPDRFTGSGSGADFTLKISRVEAEDLGVYYCWQGTHFPQTFGGGTKLEIK
notes: mouse hybridoma monoclonal
IC50, ERK phosphorylation in U2OS hGFRAL/hRET cells [1]: 0.1 nM
Kd [2]: < 0.1 nM
koff [2]: ~1e-05 s⁻¹
Kd [3]: < 0.1 nM
koff [3]: 1e-05 s⁻¹
IC50, ELK1-luciferase reporter (hGFRAL/hRET) [4]: 0.666 nM
IC50, ELK1-luciferase reporter (mGFRAL/mRET) [5]: 0.407 nM

B2: humanized anti-GFRAL antibody HC-375d/LC-375a (antibody, V domains shown)
VH: QVQLVQSGAEVKKPGSSVKVSCKASGYTFTDYYINWVRQAPGQGLEWIGRIYPGNGNTYHNEKFKGRATLTADKSTSTAYMELSSLRSEDTAVYYCAREGLYYDYDRYFDYWGQGTLVTVSS
VL: DIVMTQSPDSLAVSLGERATINCRASESVDTYGNSFMHWYQQKPGQPPKLLIYLASNLESGVPDRFSGSGSGTDFTLTISSLQAEDVAVYYCHQNNEDPPAFGGGTKVEIK
notes: humanized 5F12
Kd [6]: 0.074 nM
IC50, ELK1-luciferase reporter (hGFRAL/hRET) [7]: 3.86 nM

B3: humanized anti-GFRAL antibody HC-375d/LC-375c (antibody, IgG1, V domains shown)
VH: QVQLVQSGAEVKKPGSSVKVSCKASGYTFTDYYINWVRQAPGQGLEWIGRIYPGNGNTYHNEKFKGRATLTADKSTSTAYMELSSLRSEDTAVYYCAREGLYYDYDRYFDYWGQGTLVTVSS
VL: DIQMTQSPSSLSASVGDRVTITCRASESVDTYGNSFMHWYQQKPGKAPKLLIYLASNLESGVPSRFSGSGSGTDFTLTISSLQPEDFATYYCHQNNEDPPAFGGGTKVEIK
notes: humanized 5F12
Kd [6]: 0.075 nM
IC50, ELK1-luciferase reporter (hGFRAL/hRET) [7]: 3.28 nM

B4: humanized anti-GFRAL antibody HC-375d/LC-375j (antibody, IgG1, V domains shown)
VH: QVQLVQSGAEVKKPGSSVKVSCKASGYTFTDYYINWVRQAPGQGLEWIGRIYPGNGNTYHNEKFKGRATLTADKSTSTAYMELSSLRSEDTAVYYCAREGLYYDYDRYFDYWGQGTLVTVSS
VL: DIVLTQSPLSLPVTLGQPASISCRASESVDTYGNSFMHWYQQRPGQSPRLLIYLASNLESGVPDRFSGSGSRTDFTLKISRVEAEDVGVYYCHQNNEDPPAFGGGTKVEIK
notes: humanized 5F12
Kd [6]: 0.046 nM
IC50, ELK1-luciferase reporter (hGFRAL/hRET) [7]: 3.11 nM

B5: humanized anti-GFRAL antibody HC-375d/LC-375i (antibody, IgG1, V domains shown)
VH: QVQLVQSGAEVKKPGSSVKVSCKASGYTFTDYYINWVRQAPGQGLEWIGRIYPGNGNTYHNEKFKGRATLTADKSTSTAYMELSSLRSEDTAVYYCAREGLYYDYDRYFDYWGQGTLVTVSS
VL: DVVLTQSPLSLPVTLGQPASISCRASESVDTYGNSFMHWFQQRPGQSPRLLIYLASNLESGVPDRFSGSGSGTDFTLKISRVEAEDVGVYYCHQNNEDPPAFGGGTKVEIK
notes: humanized 5F12
Kd [6]: 0.062 nM
IC50, ELK1-luciferase reporter (hGFRAL/hRET) [7]: 2.75 nM

B6: humanized anti-GFRAL antibody HC-375e/LC-375g (antibody, IgG1, V domains shown)
VH: QVQLVQSGAEVKKPGSSVKVSCKASGYTFTDYYINWVRQAPGQGLEWMGRIYPGNGNTYHNEKFKGRATLTADESTSTAYMELSSLRSEDTAVYYCAREGLYYDYDRYFDYWGQGTLVTVSS
VL: DIVLTQSPDSLAVSLGERATINCRASESVDTYGNSFMHWYQQKPGQPPKLLIYLASNLESGVPDRFSGSGSRTDFTLTISSLQAEDVAVYYCHQNNEDPPAFGGGTKVEIK
notes: humanized 5F12
Kd [6]: 0.081 nM
IC50, ELK1-luciferase reporter (hGFRAL/hRET) [7]: 2.27 nM

B7: humanized anti-GFRAL antibody HC-375h/LC-375j (antibody, IgG1, V domains shown)
VH: QVQLVQSGAEVKKPGASVKVSCKASGYTFTDYYINWVRQAPGQRLEWIARIYPGNGNTYHNEKFKGRATLTRDKSASTAYMELSSLRSEDTAVYYCAREGLYYDYDRYFDYWGQGTLVTVSS
VL: DIVLTQSPLSLPVTLGQPASISCRASESVDTYGNSFMHWYQQRPGQSPRLLIYLASNLESGVPDRFSGSGSRTDFTLKISRVEAEDVGVYYCHQNNEDPPAFGGGTKVEIK
notes: humanized 5F12
Kd [6]: 0.06 nM
IC50, ELK1-luciferase reporter (hGFRAL/hRET) [7]: 7.29 nM

B8: humanized anti-GFRAL antibody HC-375e/LC-375j (antibody, IgG1, V domains shown)
VH: QVQLVQSGAEVKKPGSSVKVSCKASGYTFTDYYINWVRQAPGQGLEWMGRIYPGNGNTYHNEKFKGRATLTADESTSTAYMELSSLRSEDTAVYYCAREGLYYDYDRYFDYWGQGTLVTVSS
VL: DIVLTQSPLSLPVTLGQPASISCRASESVDTYGNSFMHWYQQRPGQSPRLLIYLASNLESGVPDRFSGSGSRTDFTLKISRVEAEDVGVYYCHQNNEDPPAFGGGTKVEIK
notes: humanized 5F12
Kd [6]: 0.048 nM
IC50, ELK1-luciferase reporter (hGFRAL/hRET) [7]: 4.01 nM

B9: humanized anti-GFRAL antibody HC-375d/LC-375g (antibody, IgG1, V domains shown)
VH: QVQLVQSGAEVKKPGSSVKVSCKASGYTFTDYYINWVRQAPGQGLEWIGRIYPGNGNTYHNEKFKGRATLTADKSTSTAYMELSSLRSEDTAVYYCAREGLYYDYDRYFDYWGQGTLVTVSS
VL: DIVLTQSPDSLAVSLGERATINCRASESVDTYGNSFMHWYQQKPGQPPKLLIYLASNLESGVPDRFSGSGSRTDFTLTISSLQAEDVAVYYCHQNNEDPPAFGGGTKVEIK
notes: humanized 5F12
Kd [6]: 0.077 nM
IC50, ELK1-luciferase reporter (hGFRAL/hRET) [7]: 2.79 nM

B10: humanized anti-GFRAL antibody HC-375e/LC-375c (antibody, IgG1, V domains shown)
VH: QVQLVQSGAEVKKPGSSVKVSCKASGYTFTDYYINWVRQAPGQGLEWMGRIYPGNGNTYHNEKFKGRATLTADESTSTAYMELSSLRSEDTAVYYCAREGLYYDYDRYFDYWGQGTLVTVSS
VL: DIQMTQSPSSLSASVGDRVTITCRASESVDTYGNSFMHWYQQKPGKAPKLLIYLASNLESGVPSRFSGSGSGTDFTLTISSLQPEDFATYYCHQNNEDPPAFGGGTKVEIK
notes: humanized 5F12
Kd [6]: 0.092 nM
IC50, ELK1-luciferase reporter (hGFRAL/hRET) [7]: 2.2 nM

B11: humanized anti-GFRAL antibody HC-375e/LC-375a (antibody, V domains shown)
VH: QVQLVQSGAEVKKPGSSVKVSCKASGYTFTDYYINWVRQAPGQGLEWMGRIYPGNGNTYHNEKFKGRATLTADESTSTAYMELSSLRSEDTAVYYCAREGLYYDYDRYFDYWGQGTLVTVSS
VL: DIVMTQSPDSLAVSLGERATINCRASESVDTYGNSFMHWYQQKPGQPPKLLIYLASNLESGVPDRFSGSGSGTDFTLTISSLQAEDVAVYYCHQNNEDPPAFGGGTKVEIK
notes: humanized 5F12
Kd [6]: 0.091 nM
IC50, ELK1-luciferase reporter (hGFRAL/hRET) [7]: 2.81 nM
